This passage reports Ka, k AB(c), second-order rate constant of the covalent SpyTag-SpyCatcher reaction in the catalyzed cascade (with C) and k AB(s), second-order rate constant of the covalent SpyTag-SpyCatcher reaction in the spontaneous cascade (with SrtA) results from article PMC12291137.

The target in assay [1] is substrate B with the designed M13 variant M13-3 (SpyCatcher-M13-3-LPETG-SpyTag(DA)). Description: ITC; CaM (200 μM) titrated into B or P (18 μM); the paper calls K_a(c) an apparent binding constant.
The target of assay [2] is substrate B with the designed M13 variant M13-2 (SpyCatcher-M13-2-LPETG-SpyTag(DA)). Described as above.
Assay [3] concerns the target substrate B (SpyCatcher-M13-LPETG-SpyTag(DA)), with the original M13 (M13-1). Description: kinetics of the covalent SpyTag-SpyCatcher reaction by SDS-PAGE densitometry + LC-MS of the product; A and B mixed 1:1 (10 μM each) with 0.1 equiv of SrtA or C, Tris-HCl buffer, pH 8.0, 10 mM CaCl2, 37 °C.

Take “calmodulin (CaM) (from UniProt P0DP23 1-149) (natural protein)”: the Ka in assay [1] was < 100 M⁻¹; in assay [2], 20000 M⁻¹.
Consider substrate A (GGG-SpyTag-YFP), for which, in assay [3], the k AB(c), second-order rate constant of the covalent SpyTag-SpyCatcher reaction in the catalyzed cascade (with C) turned out to be 90 M^–1 s^–1 and the k AB(s), second-order rate constant of the covalent SpyTag-SpyCatcher reaction in the spontaneous cascade (with SrtA) was 67 M^–1 s^–1.
